# Experimental data reported in patent US20240101668A1 (WUGEN, published 2024).
# Positions count from the first letter of the chain named.
# B1: Polypeptide No. 247 (scFv, V domains shown)
# VH: QVQLVQSGAEVKKPGASVKVSCKASGGTLMSYAISWVRQAPGQGLEWMGIINPRGGTTRYAQKFQGRVTMTRDTSTSTVYMELSSLRSEDTAVYYCARSEDSGYDYLDYWGQGTLVTVSS
# VL: EIVMTQSPATLSVSPGERATLSCRGSQSISGNYLAWYQQKPGQAPRLLIYDTSARAAGIPARFSGSGSGTEFTLTISSLQSEDFAVYYCQQYNSYPLTFGGGTKVEIKR
# notes: scFv
# B2: Polypeptide No. 238 (scFv, V domains shown)
# VH: QVQLVQSGAEVKKPGASVKVSCKASGYTFTIYYMHWVRQAPGQGLEWMGIINPSGGSTVYAQTFQGRVTMTRDTSTSTVYMELSSLRSEDTAVYYCARGIGSKGAFDIWGQGTMVTVSS
# VL: not shown
# notes: scFv
# B3: Polypeptide No. 291 (scFv, V domains shown)
# VH: B2 VH with I31S
# VL: not shown
# notes: scFv
# B4: Polypeptide No. 218 (scFv, V domains shown)
# VH: QVQLVQSGAEVKKPGASVKVSCKASGYSFTTHYMHWVRQAPGQGLEWMGIINPSGGSTRYAQKFQGRVTMTRDTSTSTVYMELSSLRSEDTAVYYCARGSSYYYYGVDVWGKGTTVTVSS
# VL: DIQMTQSPSSLSASVGDRVTITCRASQSISTWLAWYQQKPGKAPKLLIYAASSLQSGVPSRFSGSGSGTDFTLTISSLQPEDFATYYCQQAISFPLTFGGGTKVEIKR
# notes: scFv
# B5: Polypeptide No. 222 (scFv, V domains shown)
# VH: QVQLVQSGAEVKKPGASVKVSCKASGYSFTAYYMHWVRQAPGQGLEWMGIINPSGGSTSYAQKFQGRVTMTRDTSTSTVYMELSSLRSEDTAVYYCARVAGINGEMAYWGQGTLVTVSS
# VL: B4 VL with S28D, T31N, W32Y, S53T, A91S, I92Y, S93R, F94T, L96Y, G100Q
# notes: scFv
# B6: Polypeptide No. 244 (scFv, V domains shown)
# VH: QVQLVQSGAEVKKPGASVKVSCKASGYTFTSYYMHWVRQAPGQGLEWMGRINPSGGSTSYAQSFQGRVTMTRDTSTSTVYMELSSLRSEDTAVYYCARVPGLYGGAIDYWGQGTLVTVSS
# VL: B4 VL with S28D, S30R, T31N, W32D, A34G, A91S, I92Y, F94S, L96F, G100Q
# notes: scFv
# B7: Polypeptide No. 229 (scFv, V domains shown)
# VH: QVQLVQSGAEVKKPGASVKVSCKASGYTFTNYYMHWVRQAPGQGLEWMGIINPSGGSTSYAQKFQGRVTMTRDTSTSTVYMELSSLRSEDTAVYYCARGVGYSGYGADLWGRGTLVTVSS
# VL: B4 VL with S28G, T31N, W32S, A91S, I92H, F94P, L96Y, G100Q, V104L
# notes: scFv
# B8: Polypeptide No. 242 (scFv, V domains shown)
# VH: QVQLVQSGAEVKKPGSSVKVSCKASGGTFSSATISWVRQAPGQGLEWMGGIIPMFGTANYAQKFQGRVTITADESTSTAYMELSSLRSEDTAVYYCARDAYGDSTWGQGTLVTVSS
# VL: EIVMTQSPATLSVSPGERATLSCRASESVSSALAWYQQKPGQAPRLLIYGASTRATGIPARFSGSGSGTEFTLTISSLQSEDFAVYYCQQYGNSVTFGGGTKVEIKR
# notes: scFv
# B9: Polypeptide No. 233 (scFv, V domains shown)
# VH: QVQLVQSGAEVKKPGASVKVSCKASGYTFTSYYLHWVRQAPGQGLEWIGVINPSGGSTTYAQRFQGRVTMTRDTSTSTVYMELSSLRSEDTAVYYCARGIGYGGYFDYWGQGTLVTVSS
# VL: DIVMTQSPLSLPVTPGEPASISCRSSQSLLHSNGYNYLDWYLQKPGQSPQLLIYAASSLQSGVPDRFSGSGSGTDFTLKISRVEAEDVGVYYCMQGLRTPHTFGGGTKVEIKR
# notes: scFv
# B10: Polypeptide No. 248 (scFv, V domains shown)
# VH: QVQLVQSGAEVKKPGASVKVSCKASGYTFTGYYMHWVRQAPGQGLEWMGVINPNGGSISYAQKFQGRVTMTRDTSTSTVYMELSSLRSEDTAVYYCAREGWFGEDGMDVWGQGTTVTVSS
# VL: DIQMTQSPSSLSASVGDRVTITCRASQDLDRYLAWYQQKPGKAPKLLIYAASSLQTGVPSRFSGSGSGTDFTLTISSLQPEDFATYYCQQYYSTPYTFGQGTKLEIKR
# notes: scFv
# B11: Polypeptide No. 243 (scFv, V domains shown)
# VH: QVQLVQSGAEVKKPGSSVKVSCKASGGTFSSHAFNWVRQAPGQGLEWMGGISPMFGTPNYAQKFQGRVTITADESTSTAYMELSSLRSEDTAVYYCARAPDYGDDWYFDLWGRGTLVTVSS
# VL: EIVMTQSPATLSVSPGERATLSCRASQTLTGGLLAWYQQKPGQAPRLLIYDTSSRAAGIPARFSGSGSGTEFTLTISSLQSEDFAVYYCHHYGSSPYTFGQGTKVEIKR
# notes: scFv
# B12: Polypeptide No. 213 (scFv, V domains shown)
# VH: QVQLVQSGAEVKKPGASVKVSCKASGYTFSRYYMSWVRQAPGQGLEWMGWMNPNSGNTGYAQKFQGRVTMTRDTSTSTVYMELSSLRSEDTAVYYCARTRFAAQPHNWHFDLWGRGTLVTVSS
# VL: DIQMTQSPSSLSASVGDRVTITCRASQSISSYLNWYQQKPGKAPKLLIYDASNLKTGVPSRFSGSGSGTDFTLTISSLQPEDFATYYCQQSYSTPLTFGPGTKVDIKR
# notes: scFv
# B13: Polypeptide No. 241 (scFv, V domains shown)
# VH: B4 VH with S28T, T31R, M34V, R59S, G99S, S100Y, S101H, Y102H, V107M, K112Q
# VL: B10 VL with D28S, L29I, D30S, R31N, T56G, Y91S, Y96W, L104V
# notes: scFv
# B14: Polypeptide No. 223 (scFv, V domains shown)
# VH: QVQLVQSGAEVKKPGASVKVSCKASGYTFTNSFIHWVRQAPGQGLEWMGIINPSGGSTSYAQKFQGRVTMTRDTSTSTVYMELSSLRSEDTAVYYCAKALERRYYYGMDVWGQGTTVTVSS
# VL: B12 VL with S28G, S31N, N34A, A51G, K55E, P100Q, D105E
# notes: scFv
# B15: Polypeptide No. 228 (scFv, V domains shown)
# VH: QVQLVQSGAEVKKPGASVKVSCKASGGTFSSHAISWVRQAPGQGLEWMGWINPGSGGTNYAQKFQGRVTMTRDTSTSTVYMELSSLRSEDTAVYYCAKDSYDFWSGYYIDYWGQGTLVTVSS
# VL: B12 VL with S30Y, S31T, Y32H, D50A, N53R, K55Q, T94F, L96F
# notes: scFv
# B16: Polypeptide No. 231 (scFv, V domains shown)
# VH: QVQLVQSGAEVKKPGASVKVSCKASGYTFTSYYIHWVRQAPGQGLEWMGLINPSGGSTTYAQSFQGRVTMTRDTSTSTVYMELSSLRSEDTAVYYCARGLGWGVVVPAAELDYWGQGTLVTVSS
# VL: B12 VL with S31T, D50A, K55Q, T56S, T94S
# notes: scFv
# B17: Polypeptide No. 215 (scFv, V domains shown)
# VH: QVQLVQSGAEVKKPGASVKVSCKASGYTFTGYRMHWVRQAPGQGLEWMGWINPNSGGTNYAQKFQGRVTMTRDTSTSTVYMELSSLRSEDTAVYYCAKGGLDWRNWYFDLWGRGTLVTVSS
# VL: B4 VL with S28G, T31S, W32Y, S53T, A91S, I92Y, F94T
# notes: scFv
# B18: Polypeptide No. 246 (scFv, V domains shown)
# VH: QVQLVQSGAEVKKPGSSVKVSCKASGGTFTSYFMHWVRQAPGQGLEWMGGIIPMFGAPVYAQDFQGRVTITADESTSTAYMELSSLRSEDTAVYYCAAGLDFWSGPDNYYMDVWGKGTTVTVSS
# VL: B12 VL with R24Q, S26T, S28D, S31N, D50G, K55P, T56S, T94D, P95L
# notes: scFv
# B19: Polypeptide No. 219 (scFv, V domains shown)
# VH: QVQLVQSGAEVKKPGASVKVSCKASGYTFTNYYMHWVRQAPGQGLEWMGIINPSSGSASYTQKLQGRVTMTRDTSTSTVYMELSSLRSEDTAVYYCARDRSTLVPLDYWGQGTLVTVSS
# VL: DIQMTQSPSSLSASVGDRVTITCRASQGIRSELSWYQQKPGKAPKLLIYKASSLESGVPSRFSGSGSGTDFTLTISSLQPEDFATYYCLQHNSYPLTFGGGTKVEIKR
# notes: scFv
# B20: Polypeptide No. 235 (scFv, V domains shown)
# VH: B5 VH with S28T, A31G, V99D, A100P, I102R, N103L, M106L, A107D
# VL: EIVMTQSPATLSVSPGERATLSCRASQSVSSNLAWYQQKPGQAPRLLIYGASTRATGIPARFSGSGSGTEFTLTISSLQSEDFAVYYCQQYGSSPLTFGGGTKVEIKR
# notes: scFv
# B21: Polypeptide No. 240 (scFv, V domains shown)
# VH: QVQLVQSGAEVKKPGASVKVSCKASGYTFTSYYMHWVRQAPGQGLEWMGIINPSSGSTTYALKFQGRVTMTRDTSTSTVYMELSSLRSEDTAVYYCARGLGKSAIDYWGQGTLVTVSS
# VL: not shown
# notes: scFv
# Molecular target: T1, huFLT3-M227 stably expressed on Ramos cells (human, UniProt P36888 27-993)
# T1 construct: whole, on cells; also called FLT3 Mutant
# Test: FACS on cells
row,FACS geometric mean fold change over Jurkat parental [fold],Binder
1,2 to 10,B1
2,> 30,B2
3,> 30,B3
4,10 to 30,B4
5,> 30,B5
6,> 30,B6
7,> 30,B7
8,> 30,B8
9,> 30,B9
10,2 to 10,B10
11,2 to 10,B11
12,10 to 30,B12
13,10 to 30,B13
14,> 30,B14
15,> 30,B15
16,> 30,B16
17,10 to 30,B17
18,2 to 10,B18
19,10 to 30,B19
20,> 30,B20
21,> 30,B21

# Molecular target: T2, huFLT3-T227 stably expressed on Ramos cells (human, UniProt P36888 27-993)
# T2 construct: whole, on cells; also called FLT3 WT
# Test: FACS on cells
row,FACS geometric mean fold change over Jurkat parental [fold],Binder
1,2 to 10,B1
2,> 30,B2
3,> 30,B3
4,10 to 30,B4
5,> 30,B5
6,> 30,B6
7,> 30,B7
8,> 30,B8
9,> 30,B9
10,2 to 10,B10
11,2 to 10,B11
12,10 to 30,B12
13,10 to 30,B13
14,> 30,B14
15,> 30,B15
16,> 30,B16
17,10 to 30,B17
18,10 to 30,B18
19,10 to 30,B19
20,> 30,B20
21,> 30,B21
